Laboratory results taken from patent publication US20210261654A1 (BEIJING BEYOND BIOTECHNOLOGY, published 2021).

Target: T1, Recombinant human TNF-α (Sino Biological Inc., catalog number: 10602-HNAE) (human, UniProt P01375 77-233)
T1 construct: Bought protein; also called recombinant human TNF-α protein
Experiment: SPR (Biacore T100), BY19.4 captured by anti-IgG on CM5 chip

T1 sequence (P01375 77-233 limits assumed): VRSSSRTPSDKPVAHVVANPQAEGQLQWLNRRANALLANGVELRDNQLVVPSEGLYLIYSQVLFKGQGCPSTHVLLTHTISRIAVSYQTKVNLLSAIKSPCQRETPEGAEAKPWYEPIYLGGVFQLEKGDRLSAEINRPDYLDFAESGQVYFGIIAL

B1: anti-IL-17A antibody BY19.4 (antibody, human IgG4 S228P, kappa, V domains shown)
VH: QVQLVQSGAEVKKPGSSVKVSCKASGYSFTDYHIHWVRQAPGQGLEWMGVINPMYGTTDYNQRFKGRVTITADESTSTAYMELSSLRSEDTAVYYCARYDYFTGTGVYWGQGTLVTVSS
VL: DIVMTQTPLSLSVTPGQPASISCRSSRSLVHSRGNTYLHWYLQKPGQSPQLLIYKVSNRFIGVPDRFSGSGSGTDFTLKISRVEAEDVGVYYCSQSTHLPFTFGQGTKVEIKR
notes: also called control antibody BY19.4; BY19.4 (ixekizumab)
B1: no binding (tested: 7 nM to 600 nM tested).
